B1: CED-3 catalytic mutant (198–503, C358A) (domain or fragment, C. elegans, UniProt P42573 198-503, looked up)
chain: NRSFSKASGPTQYIFHEEDMNFVDAPTISRVFDEKTMYRNFSSPRGMCLIINNEHFEQMPTRNGTKADKDNLTNLFRCMGYTVICKDNLTGRGMLLTIRDFAKHESHGDSAILVILSHGEENVIIGVDDIPISTHEIYDLLNAANAPRLANKPKIVFVQAARGERRDNGFPVLDSVDGVPAFLRRGWDNRDGPLFNFLGCVRPQVQQVWRKKPSQADILIAYATTAQYVSWRNSARGSWFIQAVCEVFSTHAKDMDVVELLTEVNKKVACGFQTSQGSNILKQMPEMTSRLLKKFYFWPEARNSAV
notes: CED-3 catalytic domain, C. elegans, residues 198-503; also called CED-3 catalytic domain; catalytic mutant (C358A); source: expressed and purified as described previously (Huang et al, 2013)
B2: CED-4 apoptosome (natural protein, C. elegans)
chain: MLCEIECRALSTAHTRLIHDFEPRDALTYLEGKNIFTEDHSELISKMSTRLERIANFLRIYRRQASELGPLIDFFNYNNQSHLADFLEDYIDFAINEPDLLRPVVIAPQFSRQMLDRKLLLGNVPKQMTCYIREYHVDRVIKKLDEMCDLDSFFLFLHGRAGSGKSVIASQALSKSDQLIGINYDSIVWLKDSGTAPKSTFDLFTDILLMLKSEDDLLNFPSVEHVTSVVLKRMICNALIDRPNTLFVFDDVVQEETIRWAQELRLRCLVTTRDVEISNAASQTCEFIEVTSLEIDECYDFLEAYGMPMPVGEKEEDVLNKTIELSSGNPATLMMFFKSCEPKTFEKMAQLNNKLESRGLVGVECITPYSYKSLAMALQRCVEVLSDEDRSALAFAVVMPPGVDIPVKLWSCVIPVDICSNEEEQLDDEVADRLKRLSKRGALLSGKRMPVLTFKIDHIIHMFLKHVVDAQTIANGISILEQRLLEIGNNNVSVPERHIPSHFQKFRRSSASEMYPKTTEETVIRPEDFPKFMQLHQKFYDSLKNFACC
notes: CED-4, C. elegans; also called CED-4b; CED-4c; source: recombinantly expressed, obtained as previously reported (Qi et al, 2010), purified (SEC)
B3: WT CED-3 CARD (domain or fragment, C. elegans, UniProt P42573 1-91, looked up)
chain: MMRQDRRSLLERNIMMFSSHLKVDEILEVLIAKQVLNSDNGDMINSCGTVREKRREIVKAVQRRGDVAFDAFYDALRSTGHEGLAEVLEPL
notes: CED-3 CARD (caspase recruitment domain), C. elegans; source: E. coli BL21 (DE3), purified (Ni-NTA, Source-15Q anion exchange)

Columns and labels:
CED-4 apoptosome [1] = biological target: B2; assay: cryo-EM structure; CED-4/CED-3 catalytic complex: CED-4 incubated with CED-3 (198-503, C358A), assembled at 4°C for 1 h, purified by SEC in 20 mM HEPES pH 7.5, 10 mM KCl, 1.5 mM MgCl2, 1 mM EDTA, 1 mM DTT; about 2 uM; details: both partners purified
[2] = biological target: the molecule itself; assay: cryo-EM structure; CED-4 apoptosome alone (Apo dataset), low-salt sample, about 2 uM; 3D classification and refinement
[3] = biological target: the molecule itself; assay: cryo-EM structure; CED-4/CED-3_CARD complex, assembled at 4°C for 1 h, purified by SEC in 20 mM HEPES pH 7.5, 10 mM KCl, 1.5 mM MgCl2, 1 mM EDTA, 1 mM DTT; about 2 uM
[4] = biological target: the molecule itself; assay: cryo-EM structure; holoenzyme: ternary complex of CED-4, CED-3 CARD and CED-3 catalytic domain, assembled at 4°C for 1 h, purified by SEC in 20 mM HEPES pH 7.5, 10 mM KCl, 1.5 mM MgCl2, 1 mM EDTA, 1 mM DTT; about 2 uM
CED-4 apoptosome [5] = biological target: B2; assay: cryo-EM structure; CED-4/CED-3_CARD complex, assembled at 4°C for 1 h, purified by SEC in 20 mM HEPES pH 7.5, 10 mM KCl, 1.5 mM MgCl2, 1 mM EDTA, 1 mM DTT; about 2 uM; details: both partners purified

B1
binding result (CED-4 apoptosome [1]): binds

B2
stoichiometry N [2]: 7
stoichiometry N [3]: 8
stoichiometry N [4]: 6

B3
stoichiometry N (CED-4 apoptosome [5]): 4 CED-3 CARDs per octameric CED-4 apoptosome

Source: article PMC10320015, “Structural insights into CED-3 activation” (Life Science Alliance, 2023)
